Measured values reported in PMC4405178 (Biochemistry, 2015).
Changes are numbered by the printed parent chain.

What was measured:
Assay in all cases: flow cytometry on cells
[1] = target: T1, C-terminally truncated Ste2p V49D (Saccharomyces cerevisiae, UniProt D6VTK4 1-303, V49D)
T1 sequence (looked up): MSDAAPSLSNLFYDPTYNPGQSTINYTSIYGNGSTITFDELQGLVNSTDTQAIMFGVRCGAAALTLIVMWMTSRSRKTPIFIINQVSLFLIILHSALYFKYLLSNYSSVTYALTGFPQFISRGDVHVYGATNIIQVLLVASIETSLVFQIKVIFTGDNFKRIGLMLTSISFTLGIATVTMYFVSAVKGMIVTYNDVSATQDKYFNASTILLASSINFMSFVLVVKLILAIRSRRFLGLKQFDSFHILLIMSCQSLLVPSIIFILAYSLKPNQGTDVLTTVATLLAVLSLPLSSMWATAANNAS

[2] = target: T2, full-length Ste2p V49D (Saccharomyces cerevisiae, UniProt D6VTK4 1-431, V49D)
T2 sequence (looked up): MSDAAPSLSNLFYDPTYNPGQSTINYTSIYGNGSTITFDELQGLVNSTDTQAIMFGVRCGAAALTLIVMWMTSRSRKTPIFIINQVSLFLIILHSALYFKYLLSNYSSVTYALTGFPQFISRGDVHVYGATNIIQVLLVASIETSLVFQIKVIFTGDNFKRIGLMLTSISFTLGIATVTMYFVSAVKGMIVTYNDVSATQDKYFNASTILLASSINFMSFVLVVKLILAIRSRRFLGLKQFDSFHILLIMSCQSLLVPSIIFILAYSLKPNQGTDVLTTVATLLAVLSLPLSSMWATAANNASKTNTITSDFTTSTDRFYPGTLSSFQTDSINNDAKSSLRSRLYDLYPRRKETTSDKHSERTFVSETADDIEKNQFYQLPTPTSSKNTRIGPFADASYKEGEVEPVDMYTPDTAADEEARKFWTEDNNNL

[3] = target: T3, C-terminally truncated Ste2p S104Y (Saccharomyces cerevisiae, UniProt D6VTK4 1-303, S104Y)
T3 sequence (looked up): T1 sequence (looked up) with D49V, S104Y

[4] = target: T4, full-length Ste2p S95Y (Saccharomyces cerevisiae, UniProt D6VTK4 1-431, S95Y)
T4 sequence (looked up): T2 sequence (looked up) with D49V, S95Y

[5] = target: T5, full-length Ste2p L211R (Saccharomyces cerevisiae, UniProt D6VTK4 1-431, L211R)
T5 sequence (looked up): T2 sequence (looked up) with D49V, L211R

Kd [1]: 23 ± 3.3 nM
Kd [2]: 5.3 ± 2.3 nM
Kd [3]: 12 ± 3.4 nM
Kd [4]: 2.1 ± 1.5 nM
Kd [5]: 0.8 ± 0.1 nM
B1: [K^7(NBD),Nle^12] α-factor (peptide)
chain: WHWLQLKPGQPMY
modifications: NBD (7-nitrobenz-2-oxa-1,3-diazol-4-yl) conjugated to the lysine at position 7; norleucine at position 12 in place of methionine
